PMC10066393, “Structural insights into the mechanism of leptin receptor activation” (Nature Communications, 2023)

Assays:
[1] = biological target: Myc-tagged full-length human LepR, wild type (human) (UniProt P48357)
[2] = biological target: Myc-tagged full-length human LepR, wild type (human) (UniProt P48357); remark: listed apart in the source
[3] = biological target: mouse LepR^D1-D7-zip (Mus musculus | not stated) (UniProt P48356)
mouse leptin [4] = biological target: T1, mouse leptin (Mus musculus, UniProt P41160 22-167); assay: cryo-EM structure; SEC-purified leptin–LepR-zip complex cross-linked with 1 mM BS3, 1–2 mg/ml in PBS, 0.01% fluorinated octyl maltoside; single particle cryo-EM, AlphaFold models docked and refined; conditions: both partners purified
T1 construct: leptin, Mus musculus, produced in E. coli; Two leptin molecules stand in the 2:2 complex with the zippered LepR dimer; also called M. musculus leptin; source: Escherichia coli produced
T1 sequence (P41160 22-167): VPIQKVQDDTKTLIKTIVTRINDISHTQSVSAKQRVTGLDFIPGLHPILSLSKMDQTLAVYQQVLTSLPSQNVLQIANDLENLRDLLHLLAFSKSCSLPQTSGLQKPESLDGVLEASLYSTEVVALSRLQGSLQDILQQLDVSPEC

mouse leptin [5] = biological target: T1, mouse leptin; assay: SEC; mouse leptin incubated with purified LepR-zip overnight at 4 °C at a leptin:LepR ratio of 4:1; Superdex 200 in PBS pH 7.2; co-elution; conditions: both partners purified

Chain of Myc-tagged full-length human LepR, wild type (human) (P48357 22-1165): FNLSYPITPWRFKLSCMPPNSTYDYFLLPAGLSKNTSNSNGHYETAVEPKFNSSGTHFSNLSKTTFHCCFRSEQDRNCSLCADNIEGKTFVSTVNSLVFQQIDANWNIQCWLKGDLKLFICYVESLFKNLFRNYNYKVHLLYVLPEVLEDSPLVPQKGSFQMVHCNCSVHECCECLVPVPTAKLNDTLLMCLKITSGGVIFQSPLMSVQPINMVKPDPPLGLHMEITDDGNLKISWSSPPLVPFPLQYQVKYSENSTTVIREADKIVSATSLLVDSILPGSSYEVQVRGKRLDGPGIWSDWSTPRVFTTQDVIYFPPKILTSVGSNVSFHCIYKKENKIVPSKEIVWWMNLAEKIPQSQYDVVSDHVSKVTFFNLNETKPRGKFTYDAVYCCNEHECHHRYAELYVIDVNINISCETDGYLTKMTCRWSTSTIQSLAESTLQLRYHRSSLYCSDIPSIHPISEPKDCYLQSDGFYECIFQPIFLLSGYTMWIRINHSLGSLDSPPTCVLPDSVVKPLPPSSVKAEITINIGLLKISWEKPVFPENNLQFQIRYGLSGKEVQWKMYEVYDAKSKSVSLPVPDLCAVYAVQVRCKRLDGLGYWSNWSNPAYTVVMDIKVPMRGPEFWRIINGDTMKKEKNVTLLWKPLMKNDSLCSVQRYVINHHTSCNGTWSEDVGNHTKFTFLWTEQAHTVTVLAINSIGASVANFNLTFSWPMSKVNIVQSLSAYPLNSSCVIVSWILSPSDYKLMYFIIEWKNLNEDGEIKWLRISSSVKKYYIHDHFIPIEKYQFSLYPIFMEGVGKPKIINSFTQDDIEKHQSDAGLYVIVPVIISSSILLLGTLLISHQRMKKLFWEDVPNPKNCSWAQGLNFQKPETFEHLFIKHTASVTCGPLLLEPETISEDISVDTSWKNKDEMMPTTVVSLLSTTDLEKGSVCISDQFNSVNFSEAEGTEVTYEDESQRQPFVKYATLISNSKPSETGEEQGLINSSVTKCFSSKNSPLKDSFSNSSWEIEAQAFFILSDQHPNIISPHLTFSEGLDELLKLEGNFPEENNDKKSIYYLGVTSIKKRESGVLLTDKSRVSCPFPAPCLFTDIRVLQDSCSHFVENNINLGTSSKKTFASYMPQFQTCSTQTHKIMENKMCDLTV

Work on human leptin K33A/Q34A/K35A (ligand) yielded a maximal phospho-STAT3 response, dose-response by phospho-flow cytometry, LepR-expressing HEK 293T cells, percent of WT leptin (% of WT leptin) [1] of 75.

In the case of human leptin D23L/S117N (ligand), the phospho-STAT3 left, immunoblots, HEK-293T cells stably expressing hLepR, 10 nM WT leptin plus the variant, relative to WT leptin alone (% of WT leptin alone) [2] is reported as 50 and the reduction of phospho-SHP2 and phospho-ERK, immunoblots, HEK-293T cells stably expressing hLepR, 10 nM WT leptin plus the variant, 20 min [2] is reported as 90 % reduction.

Molecule “leptin S117A used on cells expressing mouse LepR (from UniProt P41160 22-167) (ligand)” has an activation of ERK in cells expressing mouse LepR (the whole receptor on cells, not the zip construct) [3] of 5%, an activation of SHP2 in cells expressing mouse LepR (the whole receptor on cells, not the zip construct) [3] of 20% and an activation of STAT3 in cells expressing mouse LepR (the whole receptor on cells, not the zip construct) [3] of 60%.

human leptin S117N (ligand) gave a maximal phospho-STAT3 response, dose-response by phospho-flow cytometry, LepR-expressing HEK 293T cells, percent of WT leptin (% of WT leptin) [1] of 45.

B1: mouse LepR^D3-D7-zip (receptor)
chain: DVVYFPPKILTSVGSNASFHCIYKNENQIISSKQIVWWRNLAEKIPEIQYSIVSDRVSKVTFSNLKATRPRGKFTYDAVYCCNEQACHHRYAELYVIDVNINISCETDGYLTKMTCRWSPSTIQSLVGSTVQLRYHRRSLYCPDSPSIHPTSEPKNCVLQRDGFYECVFQPIFLLSGYTMWIRINHSLGSLDSPPTCVLPDSVVKPLPPSNVKAEITVNTGLLKVSWEKPVFPENNLQFQIRYGLSGKEIQWKTHEVFDAKSKSASLLVSDLCAVYVVQVRCRRLDGLGYWSNWSSPAYTLVMDVKVPMRGPEFWRKMDGDVTKKERNVTLLWKPLTKNDSLCSVRRYVVKHRTAHNGTWSEDVGNRTNLTFLWTEPAHTVTVLAVNSLGASLVNFNLTFSWPMSKVSAVESLSAYPLSSSCVILSWTLSPDDYSLLYLVIEWKILNEDDGMKWLRIPSNVKKFYIHDNFIPIEKYQFSLYPVFMEGVGKPKIINGFTKDAIDKQQNDAGEELLSKNYHLENEVARLKK
notes: leptin receptor (LepR), Mus musculus, domains D3-D7, residues 330-839; GCN4 leucine zipper, C-terminal, stands in place of the transmembrane domain; Secreted with an N-terminal HA signal peptide from the vector pD649; Dimerised by the leucine zipper; source: Expi293F, transiently transfected, purified from supernatant (Ni-NTA, SEC)
B1: binds (mouse leptin [4]).

B2: mouse LepR^D1-D7-zip (receptor)
chain: NLAYPISPWKFKLFCGPPNTTDDSFLSPAGAPNNASALKGASEAIVEAKFNSSGIYVPELSKTVFHCCFGNEQGQNCSALTDNTEGKTLASVVKASVFRQLGVNWDIECWMKGDLTLFICHMEPLPKNPFKNYDSKVHLLYDLPEVIDDSPLPPLKDSFQTVQCNCSLRGCECHVPVPRAKLNYALLMYLEITSAGVSFQSPLMSLQPMLVVKPDPPLGLHMEVTDDGNLKISWDSQTMAPFPLQYQVKYLENSTIVREAAEIVSATSLLVDSVLPGSSYEVQVRSKRLDGSGVWSDWSSPQVFTTQDVVYFPPKILTSVGSNASFHCIYKNENQIISSKQIVWWRNLAEKIPEIQYSIVSDRVSKVTFSNLKATRPRGKFTYDAVYCCNEQACHHRYAELYVIDVNINISCETDGYLTKMTCRWSPSTIQSLVGSTVQLRYHRRSLYCPDSPSIHPTSEPKNCVLQRDGFYECVFQPIFLLSGYTMWIRINHSLGSLDSPPTCVLPDSVVKPLPPSNVKAEITVNTGLLKVSWEKPVFPENNLQFQIRYGLSGKEIQWKTHEVFDAKSKSASLLVSDLCAVYVVQVRCRRLDGLGYWSNWSSPAYTLVMDVKVPMRGPEFWRKMDGDVTKKERNVTLLWKPLTKNDSLCSVRRYVVKHRTAHNGTWSEDVGNRTNLTFLWTEPAHTVTVLAVNSLGASLVNFNLTFSWPMSKVSAVESLSAYPLSSSCVILSWTLSPDDYSLLYLVIEWKILNEDDGMKWLRIPSNVKKFYIHDNFIPIEKYQFSLYPVFMEGVGKPKIINGFTKDAIDKQQNDAGEELLSKNYHLENEVARLKK
notes: leptin receptor (LepR), Mus musculus, complete extracellular domain D1-D7, residues 23-839; GCN4 leucine zipper, C-terminal, stands in place of the transmembrane domain; Secreted with an N-terminal HA signal peptide from the vector pD649; Dimerised by the leucine zipper; source: Expi293F, transiently transfected, purified from supernatant (Ni-NTA, SEC)
B2: binds (mouse leptin [5]).
